# Data taken from patent US20260166154A1, “METHODS FOR TREATING OBESITY” (AMGEN INC., priority 2022, published 2026).
# Assays:
# [1] = Phase 1 SAD/MAD clinical study (NCT04478708): pharmacokinetics; assay type: in vivo, human
# From the text: (§1) Enrollment into the SAD and MAD cohorts was sequential.
# (§2) No missing data was imputed.
# [2] = Phase 1 SAD/MAD clinical study: body weight, BMI, waist circumference; assay type: in vivo, human; settings: for decrease in body weight: MAD 420 mg Q4W
# Experimental: Eligible participants were women of non-reproductive potential and men aged 18 to 65 years with a body mass index (BMI) between 30.0 kg/m2 and 40.0 kg/m2 and HbA1c≤6.5% and/or a fasting glucose of […]125 mg/dl. Participants had normal vital signs, 12-lead electrocardiogram results and clinical laboratory tests at the time of randomization.
# as §1, §2
# [3] = Phase 1 MAD cohorts: pharmacodynamic markers (fasting glucose, glucagon, HbA1c, hs-CRP); assay type: in vivo, human; settings: for hs-CRP reduction: day 127
# From the text: as §1, §2
# [4] = Predicted exposure multiples based on NOAEL established in mice; design: species or system mouse; settings: NOAEL 150 mg/kg in mice
# From the text: (§3) The rationale for dose selection for Part C is based on the available PK data from this ongoing FIH study cohorts 1 to 11 (Part A and Part B) and the NOAEL exposures established based on 13-week GLP repeat-dose studies in mouse and cynomolgus monkeys.
# [5] = Predicted exposure multiples based on NOAEL established in cynomolgus monkeys; design: species or system cynomolgus monkey; settings: NOAEL 120 mg/kg in cynomolgus monkeys
# From the text: as §3
# [6] = Phase 1 SAD/MAD clinical study: safety and tolerability (TEAEs, vital signs)
# Experimental: This was a first-in-human, double-blind, randomized, placebo-controlled study comprised of two parts: single ascending dose (SAD) and multiple ascending dose (MAD) in participants with obesity.
# Participants were randomly assigned to receive AMG133 or placebo in a ratio of 3:1. […] The MAD evaluated 3 doses given every 4 weeks on Days 1, 29 and 57. […] Enrollment into the SAD and MAD cohorts was sequential. Subsequent cohorts were dosed after the dosing regimen in the preceding cohort had been recommended by the Dose Level Review Team (DLRT) to be safe and well tolerated based on the safety and laboratory data through at least day 15. […] Placebo was provided as normal saline, the volume matching the investigational drug at each dose level.
# The primary endpoints were the participant incidence of treatment-emergent adverse events, changes in laboratory safety tests, vital signs, and 12-lead electrocardiograms. […] The exploratory endpoints were pharmacodynamic parameters including, but not limited to, concentrations of fasting glucose, insulin, c-peptide, glucagon,, hemoglobin A1c, changes in body weight, waist circumference, and BMI.
# The sample size for this trial was not based on any statistical inferences. As the trial was an exploratory first-in-human study with a small sample size, all pharmacokinetic, pharmacodynamic and safety parameters were analyzed descriptively. Participants who withdrew from the study prior to day 15 in the SAD or day 36 in the MAD were replaced so that the target numbers of participants for safety review and data collection would be achieved; replacement participants were assigned to receive the same treatment as the withdrawn participant. […] The safety analysis set was the same as the full analysis set. […] No missing data was imputed.
# [7] = Intact AMG 133, cohort 12, 420 mg SC
# [8] = Intact AMG 133, cohort 13, 420 mg SC
# [9] = Total AMG 133, cohort 12, 420 mg SC
# [10] = Total AMG 133, cohort 13, 420 mg SC
substance,measurement,setting,value
maridebart cafraglutide [AMG 133],dose proportionality of pharmacokinetics,[1]; doses 21 mg to 840 mg,dose-proportional
same,pharmacokinetics linearity based on Cmax,"[1]; preliminary review, FIH SAD and MAD, AUC data pending","linear, dose proportional kinetics"
same,maximal reduction of body weight from baseline,"[2]; MAD 140 mg Q4W, after 3 doses, day 78",7.44%
same,reduction of body weight from baseline,"[2]; MAD 140 mg Q4W, post-dose day 7",1.97%
same,waist circumference,[2]; MAD 140 mg and 420 mg,dose-dependent decrease
same,waist circumference,[2]; MAD 280 mg,fluctuations in waist circumference changes
same,decrease in body weight,[2]; day 7,−4.86%
same,decrease in body weight,[2]; day 85,−14.5%
same,duration of body weight reduction,"[2]; MAD cohorts, multiple doses",maintained until end of study day 207
same,change from baseline in BMI,[2]; SAD and MAD,followed a similar pattern as the change in body weight
same,duration of body weight decrease,[2]; all SADs except lowest dose 21 mg,maintained until day 150
same,change in mean body weight from baseline,[2]; all dose levels (SADs and MADs),decreases in mean body weight from baseline
same,maximal decrease of body weight from baseline,"[2]; single dose 21 mg, day 29",2.39%
same,mean percent change of body weight from baseline,"[2]; single dose 21 mg, post-dose day 6",−1.59%
same,mean percent change of body weight from baseline,"[2]; single dose 840 mg, day 6",−2.85%
same,maximal decrease of body weight from baseline,"[2]; single dose 840 mg, day 92",8.24%
same,hs-CRP reduction,[3]; MAD 140 mg,normalized to baseline
same,glucagon,"[3]; MAD 280 mg, day 85 and day 127",greatest reduction in glucagon was observed at day 85 which normalized by day 127
same,fasting glucose,"[3]; MAD 420 mg, safety follow up (day 127)",lower glucose levels were maintained
same,fasting glucose,"[3]; MAD 140 and 280 mg, safety follow up (day 127)",returned to above baseline
same,fasting glucose,"[3]; MAD 140 and 420 mg, day 29 and 85",decreased in a dose-responsive manner
same,hs-CRP reduction,[3]; MAD 280 and 420 mg,sustained until day 127
same,hs-CRP change from baseline,[3]; MAD cohorts,dose-responsive decrease
same,HbA1c levels,"[3]; MAD, all three dose groups, normal range at baseline",decreased in all three dose groups but trended towards baseline at day 127
same,Predicted Exposure Multiples Mouse AUC,[4]; [7],~42.4 fold
same,Predicted Exposure Multiples Mouse Cmax,[4]; [7],~43 fold
same,Predicted Exposure Multiples Mouse AUC,[4]; [8],~40.6 fold
same,Predicted Exposure Multiples Mouse Cmax,[4]; [8],~41.3 fold
same,Predicted Exposure Multiples Mouse AUC,[4]; [9],51 fold
same,Predicted Exposure Multiples Mouse Cmax,[4]; [9],54.3 fold
same,Predicted Exposure Multiples Mouse AUC,[4]; [10],~47.5 fold
same,Predicted Exposure Multiples Mouse Cmax,[4]; [10],~50.9 fold
same,Predicted Exposure Multiples Monkey AUC,[5]; [8],~43.2 fold
same,Predicted Exposure Multiples Monkey AUC,[5]; [9],48.9 fold
same,Predicted Exposure Multiples Monkey AUC,[5]; [10],~45.5 fold
same,heart rate,[6]; MAD cohorts,the 280 mg cohort had higher heart rates than the 140 mg or 420 mg cohort
same,nausea and vomiting,[6]; MAD cohorts,all participants who received AMG 133 experienced mild nausea and vomiting
same,"subjects reporting mild GI-related adverse events (mainly nausea, vomiting, diarrhea)","[6]; MAD cohorts 7 to 10, after the first dose",Approximately 90%
same,subjects experiencing GI-related adverse events,"[6]; MAD cohorts 7 to 10, after the second dose",less than 5%
same,serious adverse events or deaths,"[6]; MAD cohorts 7 to 10, any dose",no serious adverse events or deaths reported after any of the doses
same,subjects who discontinued the study prior to receiving the second dose,[6]; MAD trial,Approximately 26%
same,"serious TEAEs, TEAEs leading to permanent discontinuation, severe TEAEs",[6]; SAD and MAD,"No serious TEAEs, TEAEs leading to permanent discontinuation, or severe TEAEs were reported"
same,tolerability,[6]; SAD and MAD participants,tolerated AMG 133 well
same,dyspepsia,[6]; SAD cohorts,more frequently reported with lower doses (70 mg and 140 mg)
same,heart rate,[6]; SAD cohorts,"increased with a single dose of 280, 560 or 840 mg AMG 133 but not in a dose-dependent manner"
same,nausea and vomiting,[6]; SAD cohorts,reported in participants treated with ≥70 mg AMG 133
same,severity of GI-related TEAEs,[6]; SAD cohorts,all GI-related TEAEs were mild except one participant in the 140 mg cohort had moderate GI symptoms
same,serious adverse events or deaths,[6]; SAD cohorts 1 to 6 and 11,no serious adverse events or deaths have been reported
same,subjects who withdrew consent due to GI-related adverse events,"[6]; cohort 9, after 420 mg dose on day 1",50%
same,blood pressure,[6]; single dose or multiple doses,No meaningful changes in blood pressure
